Experimental data reported in patent publication US20230025600A1, “TREATMENT OF CANCERS WITH ANTIBODY DRUG CONJUGATES (ADC) THAT BIND TO 191P4D12 PROTEINS” (AGENSYS, INC., priority 2019, published 2023).

Columns and labels:
[1] = test system: locally advanced or metastatic urothelial cancer; experiment: EV-201 single-arm trial, efficacy (BICR, RECIST v1.1); type: in vivo, human
Experimental: The efficacy of PADCEV was evaluated in EV-201 (NCT03219333), single-arm, multicenter trial that enrolled 125 patients with locally advanced or metastatic urothelial cancer who received prior treatment with a PD-1 or PD-L1 inhibitor and platinum-based chemotherapy. Patients were excluded if they had active CNS metastases, ongoing sensory or motor neuropathy >Grade 2, or uncontrolled diabetes defined as hemoglobin A1C (HbA1c)≥8% or HbA1c≥7% with associated diabetes symptoms.
The median age was 69 years (range: 40 to 84 years), 70% were male, and 85% were Caucasian. […] Ninety percent of patients had visceral metastases including 40% with liver metastases. Two-thirds of patients had pure transitional cell carcinoma (TCC) histology; 33% had TCC with other histologic variants. An immunohistochemistry clinical trial assay was used to assess patients with tumor tissue available, and detected Nectin-4 expression in all patients tested (n=120). The median number of prior systemic therapies was 3 (range: 1 to 6). Forty-six percent of patients received prior PD-1 inhibitor, 42% received prior PD-L1 inhibitor, and an additional 13% received both PD-1 and PD-L1 inhibitors. Sixty-six percent of patients received prior cisplatin-based regimens, 26% received prior carboplatin-based regimens, and an additional 8% received both cisplatin and carboplatin-based regimens.
The major efficacy outcome measures were confirmed objective response rate (ORR) and duration of response (DOR) assessed by blinded independent central review (BICR) using RECIST v1.1.

[2] = EV-201 adverse reactions; type: in vivo, human
Experimental: The data described in this section reflect exposure to PADCEV from EV-201, a single arm study in patients (n=125) with locally advanced or metastatic urothelial cancer who had received prior treatment with a PD-1 or PD-L1 inhibitor and platinum-based chemotherapy. Patients received PADCEV 1.25 mg/kg on Days 1, 8 and 15 of a 28-day cycle until disease progression or unacceptable toxicity. The median duration of exposure to PADCEV was 4.6 months (range: 0.5-15.6).

[3] = Outcome of adverse reactions under the dose modification schedule; type: in vivo, human
Excerpt: The results based on the dose modification schedule as provided are as follows.

[4] = test system: pregnant rats; experiment: Rat embryo-fetal development study; type: in vivo
Excerpt: Additionally, skeletal anomalies (asymmetric, fused, incompletely ossified, and misshapen sternebrae, misshapen cervical arch, and unilateral ossification of the thoracic centra) and decreased fetal weight were observed.

[5] = Cardiac electrophysiology (QTc); type: in vivo, human; details: at the recommended dose; large = >20 msec
[6] = Population pharmacokinetic analysis in patients; type: in vivo, human
Excerpt: Population pharmacokinetic analysis included data from 369 patients based on three Phase 1 studies and one Phase 2 study. Enfortumab vedotin-ejfv pharmacokinetics were characterized after single and multiple doses in patients with locally advanced or metastatic urothelial carcinoma and other solid tumors.
Steady-state concentrations of ADC and MMAE were reached after 1 treatment cycle.

[7] = Storage of reconstituted vial and prepared infusion bag; type: physicochemical
Experimental: 7. Based upon the calculated dose amount, the reconstituted solution from the vial(s) should be added to the infusion bag immediately. […] If not used immediately, reconstituted vials may be stored for up to […] in refrigeration at 2° C. to 8° C. (36° F. to 46° F.). […] Discard unused vials with reconstituted solution beyond the recommended storage time.
14. If the infusion is not administered immediately, the prepared infusion bag should not be stored longer than […] at 2° C. to 8° C. (36° F. to 46° F.).

[8] = EV-201, patients who experienced rash
[9] = among patients who experienced hyperglycemia
[10] = among patients who experienced it, dose modification schedule
[11] = ADC, after first treatment cycle of 1.25 mg/kg, Days 1, 8 and 15

enfortumab vedotin-ejfv [PADCEV]
median time to response ([1]; EV-201): 1.84 months | Median Duration of Response ([1]; EV-201, BICR, median follow-up 10.2 months): 7.6 months | Complete Response Rate (CR) ([1]; EV-201, n = 125, BICR): 12% | Partial Response Rate (PR) ([1]; EV-201, n = 125, BICR): 32% | Confirmed ORR ([1]; EV-201, n = 125, BICR, 1.25 mg/kg Days 1, 8, 15 of 28-day cycle): 44% | herpes zoster ([2]; EV-201): 3% | infusion site extravasation ([2]; EV-201): 2% | median time to onset of Grade >=2 peripheral neuropathy ([2]; EV-201): 3.8 months | median time to onset of severe skin reactions ([2]; EV-201): 0.8 months | peripheral neuropathy: complete resolution at last evaluation ([2]; EV-201): 19% | peripheral neuropathy: partial improvement at last evaluation ([2]; EV-201): 26% | Alopecia, Grade >= 3 ([2]; EV-201, n = 125): 0% | Any adverse reaction, All Grades ([2]; EV-201, n = 125): 100% | Any adverse reaction, Grade >= 3 ([2]; EV-201, n = 125): 73% | Decreased appetite, Grade >= 3 ([2]; EV-201, n = 125): 2% | Dry skin, Grade >= 3 ([2]; EV-201, n = 125): 0% | Dysgeusia, Grade >= 3 ([2]; EV-201, n = 125): 0% | Nausea, Grade >= 3 ([2]; EV-201, n = 125): 3% | Peripheral neuropathy (grouped term), Grade >= 3 ([2]; EV-201, n = 125): 4% | Pruritus, All Grades ([2]; EV-201, n = 125): 26% | Pruritus, Grade >= 3 ([2]; EV-201, n = 125): 2% | Vomiting, All Grades ([2]; EV-201, n = 125): 18% | Vomiting, Grade >= 3 ([2]; EV-201, n = 125): 2% | adverse reactions leading to discontinuation ([2]; EV-201, n = 125): 16% | adverse reactions leading to dose interruption ([2]; EV-201, n = 125): 64% | adverse reactions leading to dose reduction ([2]; EV-201, n = 125): 34% | dose interruption due to fatigue ([2]; EV-201, n = 125): 6% | dose interruption due to peripheral neuropathy ([2]; EV-201, n = 125): 18% | dose interruption due to rash ([2]; EV-201, n = 125): 9% | dose reduction due to fatigue ([2]; EV-201, n = 125): 4% | dose reduction due to peripheral neuropathy ([2]; EV-201, n = 125): 12% | dose reduction due to rash ([2]; EV-201, n = 125): 6% | fatal adverse reaction: acute respiratory failure ([2]; EV-201, n = 125): 0.8% | fatal adverse reaction: aspiration pneumonia ([2]; EV-201, n = 125): 0.8% | fatal adverse reaction: cardiac disorder ([2]; EV-201, n = 125): 0.8% | fatal adverse reaction: sepsis ([2]; EV-201, n = 125): 0.8% | fatal adverse reactions ([2]; EV-201, n = 125): 3.2% | peripheral neuropathy leading to treatment discontinuation ([2]; EV-201, n = 125): 6% | serious adverse reaction: diarrhea ([2]; EV-201, n = 125): 4% | serious adverse reaction: fatigue ([2]; EV-201, n = 125): 2% | serious adverse reaction: nausea ([2]; EV-201, n = 125): 2% | serious adverse reaction: rash ([2]; EV-201, n = 125): 3% | serious adverse reaction: vomiting ([2]; EV-201, n = 125): 2% | serious adverse reactions ([2]; EV-201, n = 125, 1.25 mg/kg Days 1, 8, 15 of 28-day cycle): 46% | rash: complete resolution [2, 8]: 65% | rash: partial improvement [2, 8]: 22% | patients who developed Grade 3-4 hyperglycemia ([2]; EV-201, baseline hemoglobin A1C >=8% excluded): 8% | hyperglycemia: complete resolution [3, 9]: 57% | hyperglycemia: some improvement [3, 9]: 14% | rash: complete resolution [3, 10]: 73% | rash: patients with resolution or improvement [3, 10]: 93% | rash: some improvement [3, 10]: 20% | peripheral neuropathy: resolution or Grade 1 after the dose modification ([3]; among patients who experienced peripheral neuropathy): 76% | ongoing rash that was Grade 1 ([3]; of those with ongoing rash): 75% | findings in pregnant rats dosed during organogenesis ([4]; maternal exposures approximately similar to exposure at recommended human dose of 1.25 mg/kg): maternal toxicity, embryo-fetal lethality, structural malformations and skeletal anomalies | skeletal anomalies and decreased fetal weight ([4]; rat pilot embryo-fetal development study): observed | exposure at 5 mg/kg relative to the recommended human dose ([4]; rat, 5 mg/kg): approximately 3 times the exposure at the recommended human dose | outcome at 2 mg/kg ([4]; rat, gestation day 6 and 13, 2 mg/kg, approximately similar to exposure at recommended human dose): maternal toxicity, embryo-fetal lethality and structural malformations | outcome at the maternally toxic dose of 5 mg/kg ([4]; rat, gestation day 6 and 13, 5 mg/kg): complete litter loss in all pregnant rats | QTc prolongation [5]: no large QTc prolongation | exposure (AUC) in mild, moderate or severe renal impairment ([6]; 1.25 mg/kg, compared to normal renal function): No significant differences | AUC0-28 d, Mean (±SD) [6, 11]: 111 (38) μg · d/mL | Cmax, Mean (±SD) [6, 11]: 28 (6.8) μg/mL | accumulation following repeat administration ([6]; patients): Minimal accumulation | estimated mean steady-state volume of distribution ([6]; patients): 11 L | mean clearance (CL) ([6]; patients): 0.10 L/h | steady-state concentrations reached after ([6]; patients): 1 treatment cycle | time of peak ADC concentrations ([6]; patients, intravenous infusion): near the end of intravenous infusion | elimination half-life ([6]; patients, multi-exponential declines): 81.6 h | differences in pharmacokinetics based on age (24 to 87 years), sex, or race/ethnicity ([6]; population pharmacokinetic analysis): no clinically significant differences | storage time of prepared infusion bag ([7]; 2° C. to 8° C.): ≤ 8 h | storage time of reconstituted vials ([7]; refrigeration at 2° C. to 8° C.): up to 4 hours
